Measured values as given in patent US20240408235.

Key:
Assay in all cases: cell_activity
[1] = tested on: AAT 43-44L.105 meganuclease (synthetic construct (I-CreI derived)?); conditions: PiZ mouse liver, AAV8 delivery with repair template
[2] = tested on: AAT 43-44L.132 meganuclease (synthetic construct (I-CreI derived)?); conditions: HEK293, 25 ng RNA
[3] = tested on: AAT 43-44L.276 meganuclease (synthetic construct (I-CreI derived)?); conditions: HEK293, 25 ng RNA
[4] = tested on: AAT 43-44L.384 meganuclease (synthetic construct (I-CreI derived)?); conditions: HEK293, 25 ng RNA
[5] = tested on: AAT 43-44L.47 meganuclease (synthetic construct (I-CreI derived)?); conditions: HEK293, 25 ng RNA
[6] = tested on: AAT 43-44x.58 meganuclease (synthetic construct (I-CreI derived)?); conditions: PiZ mouse liver, AAV8 delivery with repair template
[7] = tested on: AAT 37-38L.158 meganuclease (synthetic construct (I-CreI derived)?); conditions: HEK293, 25 ng RNA
[8] = tested on: AAT 37-38L.167 meganuclease (synthetic construct (I-CreI derived)?); conditions: HEK293, 25 ng RNA
[9] = tested on: AAT 37-38L.175 meganuclease (synthetic construct (I-CreI derived)?); conditions: HEK293, 25 ng RNA
[10] = tested on: AAT 37-38L.24 meganuclease (synthetic construct (I-CreI derived)?); conditions: HEK293, 25 ng RNA
[11] = tested on: AAT 37-38L.262 meganuclease (synthetic construct (I-CreI derived)?); conditions: PiZ mouse liver, LNP-A 0.5 mg/kg; 45% at low dose
[12] = tested on: AAT 37-38x.50 meganuclease (synthetic construct (I-CreI derived)?); conditions: PiZ mouse liver, AAV8 delivery with repair template
[13] = tested on: AAT 37-38x.61 meganuclease (synthetic construct (I-CreI derived)?); conditions: Hep3B, day 6, 50 ng mRNA
[14] = tested on: AAT 35-36x.70 meganuclease (synthetic construct (I-CreI derived)?); conditions: PiZ mouse liver, scAAV repair (3.5% ssAAV)
[15] = tested on: AAT 41-42L.104 meganuclease (synthetic construct (I-CreI derived)?); conditions: HEK293, 25 ng RNA
[16] = tested on: AAT 41-42L.153 meganuclease (synthetic construct (I-CreI derived)?); conditions: HEK293, 25 ng RNA
[17] = tested on: AAT 41-42L.185 meganuclease (synthetic construct (I-CreI derived)?); conditions: HEK293, 25 ng RNA
[18] = tested on: AAT 41-42L.294 meganuclease (synthetic construct (I-CreI derived)?); conditions: HEK293, 25 ng RNA
[19] = tested on: AAT 41-42L.42 meganuclease (synthetic construct (I-CreI derived)?); conditions: HEK293, 25 ng RNA
[20] = tested on: AAT 41-42x.32 meganuclease (synthetic construct (I-CreI derived)?); conditions: Hep3B, day 6, 50 ng mRNA
[21] = tested on: AAT 9-10x.311 meganuclease (synthetic construct (I-CreI derived)?); conditions: PiZ mouse liver, AAV8; groups 1, 3, 4 (~10% in group 2); site highly methylated
[22] = tested on: AAT 33-34x.13 meganuclease (synthetic construct (I-CreI derived)?); conditions: PiZ mouse liver, ssAAV repair (11% scAAV)

AGGACCTAGATGTAGGATTCTG (double strand) [AAT 43-44 recognition sequence]
activity [1]: 14 % insertions
activity [2]: 52 % indels
activity [3]: 16 % indels
activity [4]: 26 % indels
activity [5]: 52 % indels
activity [6]: 3 % insertions

CCCCACTTTGCACAACTGGGGA (double strand) [AAT 37-38 recognition sequence]
activity [7]: 90 % indels
activity [8]: 86 % indels
activity [9]: 90 % indels
activity [10]: 90 % indels
activity [11]: 53 % indels
activity [12]: 4 % insertions
activity [13]: 80 % indels

GGCCTGGTCACACTTGGGTTTA (double strand) [AAT 35-36 recognition sequence]
activity [14]: 7.5 % insertions

TGAGGATCCTTGTGAGTGTTGG (double strand) [AAT 41-42 recognition sequence]
activity [15]: 50 % indels
activity [16]: 50 % indels
activity [17]: 20 % indels
activity [18]: 40 % indels
activity [19]: 77 % indels
activity [20]: 17 % indels

TGCCCGCTCACACCAGACCCTG (double strand) [AAT 9-10 recognition sequence]
activity [21]: 20 % indels

TTCAGACAGTTGCTCAACCTCT (double strand) [AAT 33-34 recognition sequence]
activity [22]: 10 % insertions
